This note sets out measurements from paper PMC8614764, “Sulfane Sulfur Is a Strong Inducer of the Multiple Antibiotic Resistance Regulator MarR in Escherichia coli” (Antioxidants, 2021).

Series [1] concerns the target T1, MarR (Escherichia coli MG1655) (UniProt P27245).
T1 sequence: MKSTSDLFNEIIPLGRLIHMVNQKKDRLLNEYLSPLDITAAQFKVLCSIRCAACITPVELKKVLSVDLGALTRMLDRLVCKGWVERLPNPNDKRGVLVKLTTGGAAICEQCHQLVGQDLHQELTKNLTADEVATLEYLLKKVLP
Briefly: EMSA. To be noted: EMSA: 10 mM Tris, 50 mM KCl, 5% glycerin, pH 8.0, 25 C, 30 min, 20 nM probe, 15 uL; 6% native PAGE. (In general: A gel shift assay detects complexes by their altered migration in electrophoresis.)

For series [2], the target named is T2, MarR-5XS C47S;C51S;C54S;C108S;C111S (Escherichia coli MG1655) (UniProt P27245).
T2 sequence: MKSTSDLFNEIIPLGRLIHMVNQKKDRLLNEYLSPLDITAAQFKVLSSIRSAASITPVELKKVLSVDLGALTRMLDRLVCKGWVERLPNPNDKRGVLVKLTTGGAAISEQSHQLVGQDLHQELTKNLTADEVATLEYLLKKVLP
Nature of the series: EMSA. To be noted: EMSA: 10 mM Tris, 50 mM KCl, 5% glycerin, pH 8.0, 25 C, 30 min, 20 nM probe, 15 uL; 6% native PAGE.

A further series concerns the target P27245. Briefly: SEC; Superdex-200, 10 mM Tris-HCl pH 8.0, 100 mM NaCl; MarR-5XS (25 µM) after 400 µM H2Sn for 20 min; dimers to tetramer; mass calibrated with BSA (67 kDa) and T7 RNA polymerase (99 kDa).
Series [3] concerns the molecule itself. Nature of the series: cross-linking; LC-MS/MS of tryptic peptides of MarR reacted with 10-fold H2Sn, anaerobic, room temperature, 30 min; free thiols blocked with iodoacetamide; disulfide- and trisulfide-linked Cys80 peptides identified.
Series [4] concerns the molecule itself. Briefly: SEC; Superdex-200, 10 mM Tris-HCl pH 8.0, 100 mM NaCl; MarR-5XS (25 µM) after 400 µM H2Sn for 20 min; dimers to tetramer; mass calibrated with BSA (67 kDa) and T7 RNA polymerase (99 kDa). Background: Size exclusion chromatography separates by hydrodynamic size, large species first.
Series [5] deals with the molecule itself. Briefly: SEC; Superdex-200, 10 mM Tris-HCl pH 8.0, 100 mM NaCl; untreated MarR-5XS, 25 µM; monomers to dimer.

“CATCGCATTGAACAAAACTTGAACCGATTTAGCAAAACGTGGCATCGGTCAATTCATTCATTTGACTTATACTTGCCTGGGCAATATTATCCCCTGCAAC (double strand) [marRAB promoter EMSA probe]”: the binding result in series [1] and in series [2] was “binds” in each case.

B1: H2Sn-treated MarR-5XS (protein)
chain: MKSTSDLFNEIIPLGRLIHMVNQKKDRLLNEYLSPLDITAAQFKVLSSIRSAASITPVELKKVLSVDLGALTRMLDRLVCKGWVERLPNPNDKRGVLVKLTTGGAAISEQSHQLVGQDLHQELTKNLTADEVATLEYLLKKVLP
In the case of B1, in the series with P27245, the “percent of protein as dimer (SEC peak area)” value is “the dimer, tetramer, and multimer represented 37.4%, 54.1%, and 8.5%”; the “percent of protein as multimer (SEC peak area)” value was “the dimer, tetramer, and multimer represented 37.4%, 54.1%, and 8.5%”; the “percent of protein as tetramer (SEC peak area)” value was “the dimer, tetramer, and multimer represented 37.4%, 54.1%, and 8.5%”.

B2: H2Sn-treated MarR (natural protein)
chain: MKSTSDLFNEIIPLGRLIHMVNQKKDRLLNEYLSPLDITAAQFKVLCSIRCAACITPVELKKVLSVDLGALTRMLDRLVCKGWVERLPNPNDKRGVLVKLTTGGAAICEQCHQLVGQDLHQELTKNLTADEVATLEYLLKKVLP
modifications: Cys80 linked to Cys80 of another chain by a disulfide (Cys80-Cys80) or trisulfide (Cys80-S-Cys80) bond
notes: Multiple antibiotic resistance regulator MarR of E. coli MG1655, gene b1530; primers run from the GTG start codon to the stop codon; treated with polysulfide (H2Sn); SEC was done only with MarR-5XS; The vector pET30a may add further residues between the His tag and MarR (surmised from the primer); also called pET30-MarR product; source: E. coli BL21, purified (Ni-NTA) in an anaerobic chamber, …
On to B2, for which, in series [3], the binding result is reported as “binds”.

B3: H2Sn-treated MarR-5XS (natural protein)
chain: MKSTSDLFNEIIPLGRLIHMVNQKKDRLLNEYLSPLDITAAQFKVLSSIRSAASITPVELKKVLSVDLGALTRMLDRLVCKGWVERLPNPNDKRGVLVKLTTGGAAISEQSHQLVGQDLHQELTKNLTADEVATLEYLLKKVLP
modifications: Cys80 disulfide between chains after H2Sn treatment (disulfide-stabilized tetramer)
notes: Multiple antibiotic resistance regulator MarR of E. coli MG1655, gene b1530; primers run from the GTG start codon to the stop codon; all Cys except Cys80 changed to Ser; treated with polysulfide (H2Sn); The treated sample is a mixture of dimer, tetramer and possibly multimers by SEC; the tetramer is the main species; The disulfide and trisulfide at Cys80 were identified by LC-MS/MS on treated …
Broadly, the stoichiometry N is the number of molecules, sites or subunits per partner or assembly. As for B3, the “stoichiometry N” value in series [4] was determined as 4.

B4: MarR-5XS (untreated) (natural protein)
chain: MKSTSDLFNEIIPLGRLIHMVNQKKDRLLNEYLSPLDITAAQFKVLSSIRSAASITPVELKKVLSVDLGALTRMLDRLVCKGWVERLPNPNDKRGVLVKLTTGGAAISEQSHQLVGQDLHQELTKNLTADEVATLEYLLKKVLP
notes: Multiple antibiotic resistance regulator MarR of E. coli MG1655, gene b1530; primers run from the GTG start codon to the stop codon; all Cys except Cys80 changed to Ser; Made from pET30a; Primarily a dimer by SEC; also called MarR/5CS; MarR-5CS; source: E. coli BL21(DE3), purified (Ni-NTA, PD-10 desalting) under anaerobic conditions
As for B4, the “stoichiometry N” value in series [5] amounted to 2.
